pKd: −log10 of the molar value.
Target: M2 isoenzyme of pyruvate kinase (M2PYK), human, N-terminal His6 tag (human) (UniProt P14618)
Assay: SEC; analytical gel chromatography, Superdex 200 PC 3.2/30, 0.1 ml/min; protein diluted from 20 mg/ml to 0.1 mg/ml and incubated up to 12 h (overnight) at room temperature in PBS-CM pH 7.4, without or with 10 mM serine, phenylalanine, alanine or tryptophan; apparent constant, tetramer to monomers

Chain of M2 isoenzyme of pyruvate kinase (M2PYK), human, N-terminal His6 tag, P14618 1-531 (enzyme; other documents disagree on this pair) (P14618 whole entry): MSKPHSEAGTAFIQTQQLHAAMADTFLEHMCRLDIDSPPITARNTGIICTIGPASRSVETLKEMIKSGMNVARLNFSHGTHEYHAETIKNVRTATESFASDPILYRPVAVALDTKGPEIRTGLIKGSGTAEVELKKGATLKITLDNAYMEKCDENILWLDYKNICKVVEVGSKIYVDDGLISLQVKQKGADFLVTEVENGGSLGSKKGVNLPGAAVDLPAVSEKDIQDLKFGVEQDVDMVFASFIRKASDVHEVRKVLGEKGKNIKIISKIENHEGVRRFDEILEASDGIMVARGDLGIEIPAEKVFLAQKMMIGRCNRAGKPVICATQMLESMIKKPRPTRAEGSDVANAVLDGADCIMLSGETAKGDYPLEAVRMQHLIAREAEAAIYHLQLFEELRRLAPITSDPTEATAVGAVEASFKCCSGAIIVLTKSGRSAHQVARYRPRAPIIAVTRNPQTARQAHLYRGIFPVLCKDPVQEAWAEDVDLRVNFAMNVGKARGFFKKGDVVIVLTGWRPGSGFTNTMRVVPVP

Substance: M2 isoenzyme of pyruvate kinase (M2PYK), human, N-terminal His6 tag, P14618 1-531 (enzyme; other documents disagree on this pair)
- pKd: 6.05

From PMC5980995, “An allostatic mechanism for M2 pyruvate kinase as an amino-acid sensor” (Biochemical Journal, 2018)
